# Target: HSPA5 tagged with Myc (pcDNA3.1) (UniProt P11021)
# Test: Co-IP (IP: Flag, immunoblot: Myc), band intensity number under the Myc blot
# Details: parent: 1.0
# Sequence of UniProt P11021 (P11021 19-654): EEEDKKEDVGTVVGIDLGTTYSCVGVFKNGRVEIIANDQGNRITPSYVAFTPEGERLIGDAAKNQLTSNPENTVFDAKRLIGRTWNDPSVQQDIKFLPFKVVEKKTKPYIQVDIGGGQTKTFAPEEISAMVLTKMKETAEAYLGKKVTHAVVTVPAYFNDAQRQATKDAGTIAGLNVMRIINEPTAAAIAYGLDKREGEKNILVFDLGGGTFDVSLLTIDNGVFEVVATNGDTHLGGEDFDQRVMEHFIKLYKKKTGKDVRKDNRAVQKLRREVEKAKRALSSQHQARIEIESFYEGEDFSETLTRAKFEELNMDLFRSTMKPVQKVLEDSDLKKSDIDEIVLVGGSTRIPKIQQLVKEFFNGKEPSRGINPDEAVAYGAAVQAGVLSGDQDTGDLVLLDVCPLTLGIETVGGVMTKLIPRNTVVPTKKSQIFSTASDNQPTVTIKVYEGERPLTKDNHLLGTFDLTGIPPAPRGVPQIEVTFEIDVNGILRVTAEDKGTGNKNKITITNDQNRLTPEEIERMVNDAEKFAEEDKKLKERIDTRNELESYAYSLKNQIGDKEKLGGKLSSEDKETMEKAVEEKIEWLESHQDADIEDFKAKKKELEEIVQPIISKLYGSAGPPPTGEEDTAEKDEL
row,Substance,ratio to parent
1,SBSPON tagged with 3×Flag (pcDNA3.1-3×Flag-SBSPON) (from UniProt Q8IVN8) ASP88Vla; LYS91Vla; GLU123Vla; HIS134Vla,0.8
2,SBSPON tagged with 3×Flag (pcDNA3.1-3×Flag-SBSPON) (from UniProt Q8IVN8) ASP88Vla,0.7
3,SBSPON tagged with 3×Flag (pcDNA3.1-3×Flag-SBSPON) (from UniProt Q8IVN8) LYS91Vla,0.9
4,SBSPON tagged with 3×Flag (pcDNA3.1-3×Flag-SBSPON) (from UniProt Q8IVN8) HIS134Vla,0.8
5,SBSPON tagged with 3×Flag (pcDNA3.1-3×Flag-SBSPON) (from UniProt Q8IVN8) GLU123Vla,0.9
